According to patent publication US20240270866A1 (Alector, published 2024):
Residue numbers refer to the chain shown, from its start.

T1: Mouse SIRPA D1 Fc (mouse, UniProt P97797 32-150, limits assumed)
T1 sequence: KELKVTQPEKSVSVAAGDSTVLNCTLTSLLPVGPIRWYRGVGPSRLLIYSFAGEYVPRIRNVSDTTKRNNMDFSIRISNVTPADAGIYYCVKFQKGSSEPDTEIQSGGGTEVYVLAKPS

T2: mouse SIRPA overexpressed on CHO cells (mouse, UniProt P97797 32-513)
T2 construct: also called CHO-muSIRPA
T2 sequence: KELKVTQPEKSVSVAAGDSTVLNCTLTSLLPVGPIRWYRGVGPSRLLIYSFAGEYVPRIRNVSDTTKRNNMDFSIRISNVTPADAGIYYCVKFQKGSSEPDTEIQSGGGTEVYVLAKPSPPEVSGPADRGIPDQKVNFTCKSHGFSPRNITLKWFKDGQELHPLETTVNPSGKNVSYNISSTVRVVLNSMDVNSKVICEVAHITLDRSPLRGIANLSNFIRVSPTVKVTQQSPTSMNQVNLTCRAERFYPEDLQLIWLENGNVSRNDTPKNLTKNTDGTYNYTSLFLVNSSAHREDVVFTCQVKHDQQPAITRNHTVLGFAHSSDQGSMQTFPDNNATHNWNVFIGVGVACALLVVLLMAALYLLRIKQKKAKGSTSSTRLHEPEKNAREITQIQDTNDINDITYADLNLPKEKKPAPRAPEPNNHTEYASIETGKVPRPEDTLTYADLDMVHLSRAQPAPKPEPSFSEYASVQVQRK

B1: SA-13 (antibody, V domains shown)
VH: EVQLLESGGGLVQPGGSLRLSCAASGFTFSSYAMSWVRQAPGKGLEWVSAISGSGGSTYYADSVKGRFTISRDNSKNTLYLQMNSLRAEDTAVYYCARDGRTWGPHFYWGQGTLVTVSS
VL: DIQMTQSPSSLSASVGDRVTITCRASQSISSYLNWYQQKPGKAPKLLIYAASSLQSGVPSRFSGSGSGTDFTLTISSLQPEDFATYYCQQGYIYPPTFGGGTKVEIK
notes: IgG; also called SA-13 (parental)
B2: SA-44 (antibody, V domains shown)
VH: EVQLVESGGGLVQPGGSLRLSCAASGFTFSSYSMNWVRQAPGKGLEWVSYISSSSSTIYYADSVKGRFTISRDNAKNSLYLQMNSLRAEDTAVYYCAREPFYSADRFDYWGQGTLVTVSS
VL: B1 VL with L11V, S28G, S30D, Y32W, N34A, Y92V, I93S, Y94L, P96Y
notes: IgG
B3: SA-40 (antibody, V domains shown)
VH: QVQLVQSGAEVKKPGASVKVSCKASGYTFTSYYMHWVRQAPGQGLEWMGIINPSGGSTTYAQKFQGRVTMTRDTSTSTVYMELSSLRSEDTAVYYCAREGLASTGVSDYYYMDVWGKGTTVTVSS
VL: EIVLTQSPGTLSLSPGERATLSCRASQSVSSSYLAWYQQKPGQAPRLLIYGASSRATGIPDRFSGSGSGTDFTLTISRLEPEDFAVYYCQQLAHSPFTFGGGTKVEIK
notes: IgG
B4: SA-52 (antibody, V domains shown)
VH: QVQLVQSGAEVKKPGASVKVSCKASGYTFTNYGISWVRQAPGQGLEWMGWISAYNGNTNYAQKLQGRVTMTTDTSTSTAYMELRSLRSDDTAVYYCARGLWSEHIYWGQGTLVTVSS
VL: B3 VL with L4M, S54N, L92Y, A93V, H94D, S95L, F97L
notes: IgG
B5: SA-7 (antibody, V domains shown)
VH: QVQLVESGGGVVQPGRSLRLSCAASGFTFSSYGMHWVRQAPGKGLEWVALIWYDGSNKYYADSVKGRFTISRDNSKNTLYLQMNSLRAEDTAVYYCAKEGSSYADGWPYGMDVWGQGTTVTVSS
VL: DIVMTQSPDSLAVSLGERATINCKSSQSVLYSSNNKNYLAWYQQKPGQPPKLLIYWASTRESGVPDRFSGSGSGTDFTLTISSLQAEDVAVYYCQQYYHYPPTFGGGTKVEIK
notes: IgG
B6: SA-48 (antibody, V domains shown)
VH: QVQLVESGGGVVQPGRSLRLSCAASGFTFSSYGMHWVRQAPGKGLEWVAVISYDGSNKYYADSVKGRFTISRDNSKNTLYLQMNSLRAEDTAVYYCARGAPIETLGVYYYGMDVWGQGTTVTVSS
VL: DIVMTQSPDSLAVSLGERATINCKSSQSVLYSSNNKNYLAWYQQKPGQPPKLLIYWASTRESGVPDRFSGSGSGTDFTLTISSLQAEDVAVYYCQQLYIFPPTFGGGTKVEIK
notes: IgG
B7: SA-45 (antibody, V domains shown)
VH: QVQLVQSGAEVKKPGASVKVSCKASGYTFTSYGISWVRQAPGQGLEWMGWISAYNGNTNYAQKLQGRVTMTTDTSTSTAYMELRSLRSDDTAVYYCARESGGTGAYGMDVWGQGTTVTVSS
VL: DIQMTQSPSSLSASVGDRVTITCRASQSVSSSYLAWYQQKPGQAPRLLIYGASSRATGIPDRFSGSGSGTDFTLTISRLEPEDFAVYYCQQYYDSITFGGGTKVEIK
notes: IgG
B8: SA-53 (antibody, V domains shown)
VH: QVQLQESGPGLVKPSQTLSLTCTVSGGSISSGGYYWSWIRQHPGKGLEWIGYIYYSGSTYYNPSLKSRVTISVDTSKNQFSLKLSSVTAADTAVYYCARGPLGAAGFDYWGQGTLVTVSS
VL: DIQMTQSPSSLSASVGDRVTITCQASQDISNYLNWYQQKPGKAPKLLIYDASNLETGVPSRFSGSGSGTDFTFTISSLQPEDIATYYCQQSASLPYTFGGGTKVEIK
notes: IgG
B9: SA-57 (antibody, V domains shown)
VH: QLQLQESGPGLVKPSETLSLTCTVSGGSISSSSYAWGWIRQPPGKGLEWIGSIYYSGSTYYNPSLKSRVTISVDTSKNQFSLKLSSVTAADTAVYYCARKGMDDAGMDVWGQGTTVTVSS
VL: EIVLTQSPATLSLSPGERATLSCRASQSVSSYLAWYQQKPGQAPRLLIYDASNRATGIPARFSGSGSGTDFTLTISSLEPEDFAVYYCQQDSAWPFTFGGGTKVEIK
notes: IgG
B10: SA-6 (antibody, V domains shown)
VH: EVQLVESGGGLVQPGRSLRLSCAASGFTFDDYAMHWVRQAPGKGLEWVSGITWNSGSIGYADSVKGRFTISRDNAKNSLYLQMNSLRAEDTALYYCAKEGRYGSGITTTWGQGTLVTVSS
VL: B9 VL with L4M, A51S, S92A, A93N, W94Y, F96Y
notes: IgG
B11: SA-50 (antibody, V domains shown)
VH: EVQLVESGGGLVQPGGSLRLSCAASGFTFSSYSMNWVRQAPGKGLEWVSYISSSSSTIYYADSVKGRFTISRDNAKNSLYLQMNSLRAEDTAVYYCARGGGGYSYSPYIYGMDVWGQGTTVTVSS
VL: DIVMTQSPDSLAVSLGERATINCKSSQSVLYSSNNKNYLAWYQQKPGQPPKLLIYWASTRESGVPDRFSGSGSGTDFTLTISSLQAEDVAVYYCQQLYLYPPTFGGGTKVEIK
notes: IgG
B12: SA-41 (antibody, V domains shown)
VH: QVQLQESGPGLVKPSETLSLTCTVSGGSISSYYWSWIRQPPGKGLEWIGSIYYSGSTNYNPSLKSRVTISVDTSKNQFSLKLSSVTAADTAVYYCAREGVAARGYYYGMDVWGQGTTVTVSS
VL: EIVMTQSPATLSVSPGERATLSCRASQSVSSSLAWYQQKPGQAPRLLIYGASTRATGIPARFSGSGSGTEFTLTISSLQSEDFAVYYCQQYITYPITFGGGTKVEIK
notes: IgG
B13: SA-42 (antibody, V domains shown)
VH: B12 VH
VL: B12 VL with S32N, Y49F, I92N, T93A
notes: IgG
B14: SA-19-72 (antibody, V domains shown)
VH: QVQLVESGGGVVQPGRSLGLSCAASGFTFSSYAMHWVRQAPGKGLEWVAGILYDGSNKYYADSVKGRFTISRDNSKNTLYLQMNSLRAEDTAVYYCARSNEKYTLGFAFDIWGQGTMVTVSS
VL: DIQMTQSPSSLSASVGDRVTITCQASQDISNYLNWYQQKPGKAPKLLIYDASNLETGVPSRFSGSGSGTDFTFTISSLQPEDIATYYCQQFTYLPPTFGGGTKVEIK
notes: IgG
B15: SA-19-75 (antibody, V domains shown)
VH: B14 VH with G19R, A33G, G50V, L52A, Y59L, R98L, S99M, N100R, E101T
VL: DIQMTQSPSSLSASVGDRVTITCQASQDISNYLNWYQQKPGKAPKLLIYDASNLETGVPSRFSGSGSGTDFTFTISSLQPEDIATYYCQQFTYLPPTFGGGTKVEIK
notes: IgG
B16: SA-19-73 (antibody, V domains shown)
VH: B14 VH with V11L, R16G, G19R, R98N, N100D, E101T
VL: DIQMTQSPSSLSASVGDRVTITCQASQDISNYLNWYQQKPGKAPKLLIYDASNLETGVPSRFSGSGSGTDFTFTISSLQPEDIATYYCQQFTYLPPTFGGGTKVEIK
notes: IgG
B17: SA-19-74 (antibody, V domains shown)
VH: B14 VH with G19R, T28A, S99H, N100S, E101Q
VL: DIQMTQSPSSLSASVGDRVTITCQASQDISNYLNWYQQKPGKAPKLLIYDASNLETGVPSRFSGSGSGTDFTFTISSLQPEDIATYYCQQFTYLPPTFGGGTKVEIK
notes: IgG
B18: SA-19-76 (antibody, V domains shown)
VH: QVQLVESGGGVVQPGRSLRLSCAASGFTFSSYGMHWVRQAPGKGLEWVAVIAYDGSNKLYADSVKGRFTISRDNAKNSLYLQMNSPRAEDTAVYYCATMRTKYTLGFAFDIWGQGTMVTVSS
VL: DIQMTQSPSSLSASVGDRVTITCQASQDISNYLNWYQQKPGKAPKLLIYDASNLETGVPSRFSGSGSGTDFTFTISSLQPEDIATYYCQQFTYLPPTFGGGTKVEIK
notes: IgG
B19: SA-13-69 (antibody, V domains shown)
VH: EVQLLESGGGLVQPGGSLRLSCAASGFTFTEYAMSWVRQAPGKGLEWVSAISGSGGSTYYADSVKARFTISRDNSKNTLYLQMNSLRAEDTAVYYCARDGTQWGPHFYWGQGTLVTVSS
VL: B1 VL
notes: IgG

Molecular target: T1, Mouse SIRPA D1 Fc
Experiment: ForteBio IgG avid;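 on result: antibody IgG captured on AHQ biosensors, then 100 nM Fc-fused SIRP antigen applied for 3 min, followed by 3 min buffer dissociation, kinetics fitted to a 1:1 model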
Procedure: (§1) Briefly, ForteBio affinity measurements were performed by loading IgGs on-line onto AHQ sensors. Sensors were equilibrated off-line in assay buffer for 30 min and then monitored on-line for 60 seconds for baseline establishment. For avid binding measurement, sensors with loaded IgGs were exposed to 100 nM antigen (human SIRPA or SIRPβ1 Fc fusion) for 3 min, afterwards they were transferred to assay buffer for 3 min for off-rate measurement. Additional avid binding was determined by loading biotinylated SIRPA monomer on SA sensors and exposure to 100 nM IgG in solution. Monovalent binding measurements were obtained by loading human SIRPA or SIRPβ1 Fc fusion antigens to AHQ sensor and followed by exposure to 100 nM anti-SIRPA antibody Fab. Additional monovalent measurements were made by loading biotinylated human SIRPA or SIRPβ1 monomer to SA sensor followed by exposure to 100 nM Fab in solution. Kinetics data were fit using a 1:1 binding model in the data analysis software provided by ForteBio.

Row | binding result | Binder
1 | no binding (tested: 100 nM) | B1
2 | no binding (tested: 100 nM) | B2
3 | no binding (tested: 100 nM) | B3
4 | no binding (tested: 100 nM) | B4
5 | no binding (tested: 100 nM) | B5
6 | no binding (tested: 100 nM) | B6
7 | no binding (tested: 100 nM) | B7
8 | no binding (tested: 100 nM) | B8
9 | no binding (tested: 100 nM) | B9
10 | no binding (tested: 100 nM) | B10
11 | no binding (tested: 100 nM) | B11
12 | no binding (tested: 100 nM) | B12
13 | no binding (tested: 100 nM) | B13

Molecular target: Human SIRPb D1 Fc (human, UniProt O00241 30-148, limits assumed)
Sequence (O00241 30-148 limits assumed): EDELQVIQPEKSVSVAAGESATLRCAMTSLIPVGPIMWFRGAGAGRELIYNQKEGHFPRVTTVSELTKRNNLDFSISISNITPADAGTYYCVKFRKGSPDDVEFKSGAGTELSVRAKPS
Experiment: ForteBio IgG avid;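 on result: antibody IgG captured on AHQ biosensors, then 100 nM Fc-fused SIRP antigen applied for 3 min, followed by 3 min buffer dissociation, kinetics fitted to a 1:1 model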
Procedure: as §1

Row | Kd | binding result | Binder
14 | 19.6 nM | – | B1
15 | – | no binding (tested: 100 nM) | B2
16 | – | no binding (tested: 100 nM) | B3
17 | – | no binding (tested: 100 nM) | B4
18 | – | no binding (tested: 100 nM) | B5
19 | – | no binding (tested: 100 nM) | B6
20 | – | no binding (tested: 100 nM) | B7
21 | – | no binding (tested: 100 nM) | B8
22 | – | no binding (tested: 100 nM) | B9
23 | – | no binding (tested: 100 nM) | B10
24 | – | no binding (tested: 100 nM) | B11
25 | – | no binding (tested: 100 nM) | B12
26 | – | no binding (tested: 100 nM) | B13

Molecular target: T3, human SIRPA Fc fusion antigen (human, UniProt P78324 31-373)
T3 construct: heterologous signal peptide; not shown: human IgG1 Fc
Experiment: ForteBio IgG avid;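 on result: antibody IgG captured on AHQ biosensors, then 100 nM Fc-fused SIRP antigen applied for 3 min, followed by 3 min buffer dissociation, kinetics fitted to a 1:1 model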

Row | Kd | Binder
27 | 1.1 nM | B14
28 | 0.537 nM | B15
29 | 0.71 nM | B16
30 | 0.676 nM | B17
31 | 0.504 nM | B18

Molecular target: T4, human SIRPβ1 Fc fusion antigen (human, UniProt O00241 30-371)
T4 construct: not shown: human IgG1 Fc
T4 sequence (O00241 30-371 limits assumed): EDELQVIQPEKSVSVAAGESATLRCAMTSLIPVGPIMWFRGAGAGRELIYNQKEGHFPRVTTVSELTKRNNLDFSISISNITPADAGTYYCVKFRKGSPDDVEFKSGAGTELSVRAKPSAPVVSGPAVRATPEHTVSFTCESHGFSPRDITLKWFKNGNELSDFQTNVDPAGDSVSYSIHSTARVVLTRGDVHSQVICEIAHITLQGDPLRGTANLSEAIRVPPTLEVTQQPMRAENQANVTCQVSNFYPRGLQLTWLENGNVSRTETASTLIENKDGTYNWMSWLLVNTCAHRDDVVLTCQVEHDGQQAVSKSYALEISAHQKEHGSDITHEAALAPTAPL
Experiment: ForteBio IgG avid;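 on result: antibody IgG captured on AHQ biosensors, then 100 nM Fc-fused SIRP antigen applied for 3 min, followed by 3 min buffer dissociation, kinetics fitted to a 1:1 model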

Row | Kd | Binder
32 | 12.3 nM | B1
33 | 3.99 nM | B19
34 | 4.75 nM | B14
35 | 3.13 nM | B15
36 | 2.95 nM | B16
37 | 4.08 nM | B17
38 | 2.05 nM | B18

Molecular target: T2, mouse SIRPA overexpressed on CHO cells
Experiment: flow, CHO-muSIRPA;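 on relative MFI: antibody binding measured by flow cytometry: cells stained with 1 ug/ml test antibody for 1 h on ice, detected with PE-labelled secondary antibody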
Procedure: Initial characterization of anti-SIRPA antibodies of the present disclosure involved determining their ability to bind cell lines overexpressing human or mouse SIRPA. Cells were harvested, plated at 10⁶/ml in a 96 well plate, washed, and incubated in 100 ul PBS containing 1 ug/ml Mab for 1 hour in ice. Cells were then washed twice and incubated in 100 ul PBS containing 5 ug/ml PE-conjugated secondary antibody for 30 minutes in ice. Cells were washed twice in cold PBS and acquired on a BD FACS Canto. Data analysis and calculation of mean fluorescence intensity (MFI) values or % positive cells was performed with FlowJo® (TreeStar) software version 10.0.7.

Row | relative MFI | Binder
39 | 0.571 fold over background | B1
40 | 0.56 fold over background | B2
41 | 0.446 fold over background | B3
42 | 0.557 fold over background | B4
43 | 0.515 fold over background | B5
44 | 0.545 fold over background | B6
45 | 0.512 fold over background | B7
46 | 0.726 fold over background | B8
47 | 0.464 fold over background | B9
48 | 0.545 fold over background | B10
49 | 0.518 fold over background | B11
50 | 0.47 fold over background | B12
51 | 0.443 fold over background | B13

Molecular target: T2, mouse SIRPA overexpressed on CHO cells
Experiment: flow, CHO-muSIRPA;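 on relative MFI: antibody binding measured by flow cytometry: cells stained with 1 ug/ml test antibody for 1 h on ice, detected with PE-labelled secondary antibody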
Remark: another data set of the same source

Row | binding result | Binder
52 | no binding (tested: 1 ug/ml) | B1
53 | no binding (tested: 1 ug/ml) | B2
54 | no binding (tested: 1 ug/ml) | B3
55 | no binding (tested: 1 ug/ml) | B4
56 | no binding (tested: 1 ug/ml) | B5
57 | no binding (tested: 1 ug/ml) | B6
58 | no binding (tested: 1 ug/ml) | B7
59 | no binding (tested: 1 ug/ml) | B8
60 | no binding (tested: 1 ug/ml) | B9
61 | no binding (tested: 1 ug/ml) | B10
62 | no binding (tested: 1 ug/ml) | B11
63 | no binding (tested: 1 ug/ml) | B12
64 | no binding (tested: 1 ug/ml) | B13

Molecular target: T5, human SIRPA overexpressed on CHO cells (human, UniProt P78324 31-504)
T5 construct: also called CHO-huSIRPA
Experiment: flow, CHO-huSIRPA;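 further: Anti-SIRPA antibodies applied at 1 µg/mL for 1 h on ice, binding read by flow cytometry using a PE-labelled secondary antibody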

Row | relative MFI | Binder
65 | 59.9 fold over background | B1
66 | 1.2 fold over background | B2
67 | 0.542 fold over background | B3
68 | 1.9 fold over background | B4
69 | 0.708 fold over background | B5
70 | 3.27 fold over background | B6
71 | 14.1 fold over background | B7
72 | 2.13 fold over background | B8
73 | 1.89 fold over background | B9
74 | 3.13 fold over background | B10
75 | 5.56 fold over background | B11
76 | 0.989 fold over background | B12
77 | 1.29 fold over background | B13
